Measured values taken from PMC12830966.

Target: NFIA full-length (human, UniProt Q12857 1-509)
Experiment: BLI

Chain of NFIA full-length (Q12857 whole entry): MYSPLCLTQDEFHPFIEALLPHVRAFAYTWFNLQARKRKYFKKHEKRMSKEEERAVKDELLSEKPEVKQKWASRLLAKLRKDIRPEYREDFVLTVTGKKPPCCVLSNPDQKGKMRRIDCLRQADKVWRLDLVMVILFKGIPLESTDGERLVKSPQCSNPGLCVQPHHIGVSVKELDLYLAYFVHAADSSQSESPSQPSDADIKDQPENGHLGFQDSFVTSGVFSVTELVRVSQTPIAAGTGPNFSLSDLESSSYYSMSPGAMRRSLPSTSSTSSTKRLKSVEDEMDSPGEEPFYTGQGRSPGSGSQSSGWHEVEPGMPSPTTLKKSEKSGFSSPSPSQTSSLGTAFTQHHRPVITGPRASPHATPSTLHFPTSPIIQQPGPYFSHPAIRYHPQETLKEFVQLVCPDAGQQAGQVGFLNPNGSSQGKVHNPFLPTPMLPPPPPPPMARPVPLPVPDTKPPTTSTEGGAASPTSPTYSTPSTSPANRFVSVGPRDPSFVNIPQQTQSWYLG

B1: DNA-S (dsDNA)
DNA 1: AGTTGGCAAGTC
DNA 2: GACTTGCCAACT
For B1, the Kd was 20.4 nM.
